Measured values: paper PMC4640833, “Identification of a Novel Di-D-Fructofuranose 1,2’:2,3’ Dianhydride (DFA III) Hydrolysis Enzyme from Arthrobacter aurescens SK8.001” (PLoS ONE, 2015)

What was measured:
[1] = target: DFA III hydrolysis enzyme (DFA IIIase) from Arthrobacter aurescens SK8.001 (Arthrobacter aurescens SK8.001); assay: SEC; gel filtration by HPLC, TSK G2000SWxl column, 0.1 M phosphate buffer pH 6.7 with 0.05% NaN3 and 0.1 M Na2SO4, 1 mL/min, UV 280 nm; native mass about 145 kDa against 49 kDa subunit by SDS-PAGE; mass markers for calibration
[2] = substrate: OC[C@H]1O[C@@]2(CO[C@]3(CO)O[C@H](CO)[C@@H](O)[C@@H]3O2)[C@@H](O)[C@@H]1O; assay: HPLC (refractive index) of inulobiose produced, nonlinear Michaelis-Menten fit; assay type: biochemical, Paenarthrobacter aurescens; details: 50 mM citrate buffer pH 5.5, 55°C, 10 min, DFA III 2.0-50 mM

Molecule	stoichiometry N [1]	Km [2] [mM]
DFA III hydrolysis enzyme (DFA IIIase) from Arthrobacter aurescens SK8.001	3	–
AaDFA IIIase (Paenarthrobacter aurescens) (protein, full length 470 residues (49,879 Da), no signal peptide, C-terminal 6xHis tag kept, pET-22b(+) in E. coli BL21(DE3), homotrimer 145 kDa) MSNSNYYNVTAWPIGDPFTGVGEVINSIIADIKDRQTATDENDGGKPGAVIYLPPGDYRLRTQVVIDVSFLRIEGSGHGFTSSSIRFNAPEAEWPDLHELWPGGSRVMVDLPIIDDERPSDLLPDQESKGAAFYVERSGSPRISSVEFSNFCIDGLHFTPDGSGLPAENSYVNGKTGIYVASANDSFRVNGMGFVYLENALTICKADALSVHDNFIAECGSCIELRGWGQASKITDNLIGAGFKGHSIYAQNHGGLLITANNIFPRGASSIHFEGVTRSSVSNNRLHSFYPGMVVLAEGSSENLVSTNHFLRDHEPWTPFLGVDNGRDDLYGILRISGSNNSVIGNHFSEVVDAQSIWPSGATPVIIRLAEGTGNFVSNNHVVAMDVRSASSDSCFAAQVDALLTTGASDGLAVTAVLVDSTSARNTILDSGNDAQVIADRGANAVRATPTVGFAAAESTQSSQGAGIPR	–	30.7 ± 4.3
